Measurements taken from the nanobody polyreactivity screen of Harvey et al. (2022).

assay: yeast display, Sf9 membrane polyspecificity reagent, FACS + sequencing; frameworks hold sequencing errors
Summary of the method: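 Nanobodies from a synthetic yeast display library (Saccharomyces cerevisiae BJ5465), induced 36–48 hours with galactose, were stained 1 hour at 4 °C with 10% biotinylated, detergent-solubilized Sf9 membrane reagent, enriched on streptavidin microbeads, then FACS-sorted. Anti-HA (expression) and streptavidin (reagent binding) fluorescence set low and high (top ~1%) gates. Polyreactivity labels come from the gate of origin. Genes were colony-PCR amplified, MiSeq 2 × 250 sequenced and filtered by CDR length.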

Sequence | polyreactivity (PSR sort gate)
QVQLVQSGGGLVQAGGSLSLICAASGRIFGYYAMGWYRQAPGKERELVDTITFGGGSTYYADSVKGRFTISRDNAKNTVYLQMNSLKPEDTAVYYCAADCGYLGIYGDEYSWGQGTQVTVSS | low polyreactivity
QVQLVQSGGGLVQAGGSLSLSCAGSGSTFHNYAMGWYRQAPGQEREMVAGISVRGGGTYYAYSVKGRFTISRDNANNTVYVQMNSLKPEETAVYYCAASRSRYSVNWYNYWGQGTQVTVSS | high polyreactivity
QVQLVQSGGRLVQAGGSLRLSCAASGLIFVHYTMGWYRQAPGKERELVASINSGGSTNYADSVKGRFTISRDNAKNTVYLQMISLKPEDTAVYYCADRRVVFWRRMYYWGQGTQVTVSS | high polyreactivity
QVQLVQSRGGLVHAGGSLRFSSAATGITILRYAMGWYIQAPGKERELVAGISWDGGRTYNADSVKGRFTISRDNAKNTVFLQMNSMKPEDTEVYYCADKPSRYRVSLFDYWGHGTQVTVSS | low polyreactivity
QVQLVQSRGGLVQAGGSLRLSCAASGSTFSGNAMGWYRPAPGKEREFVAAITSSGGSTYYADSVKGRFTISRDNAKNSVYLQMNSLKPEDTAVYYCATDNPFLWWFRPDQHGMGYWGQGTQVTVSS | low polyreactivity
QVQLVQSWPGLVQEGGSLRLSSAESGYTIRWYAMGCYRQAHGKERELVASITSGGNTNYADSVKGRFTISRDNAKNTVYLQMNRLKTEDTEVYYCAATRGYYRLDYWGQGTQVTVSS | high polyreactivity
QVQLVQTGGGLVQAGGSLRLSCAASGRTFRYYAMGLYRQAPGKEREFVATITYSSGSTYYADSVKGRFTISRDNAKNTVYLQMNSLKPEDTAVYYCNAEGYCNSYGYWGQGTQVTVSS | low polyreactivity
QVQLVVSGGGLVQAGGSIRLSCAASGRIFFYNAMGWYRQAPGKERELVAGISSGGGSTYYADSVKGRFTISRDNAKNTVYLQLNSLKPDDPAVYYCNKVVYSYSVGVGEYDYWGQGTQVTVSS | high polyreactivity
QVQLVVSGGGLVQAGGSLRLRCAASGRTFVRYAMGWSRQAPGKERELVARITTRGTSTYYADSVKGRFTISRDNAKNTVYLLLNSLKPEDTAVYYCNKVRTFRDKSRYDYWGQGTQVTVSS | low polyreactivity
QVQLVVSGGGLVQAGGSLRLRCAASGRTIWPYAMGWYRQAPRKESEFDAAITWTVGRTYYADSVKGRFTISRDNAKNTVYLQMNSLKPDDTAVYYCNARSYSQTLFGYPDDYWGQGTQVTVSS | high polyreactivity
QVQLVVSGGGLVQAGGSLRLSCAASGRTFRSYAMGWYRQAPGKERELVAAISYGGGSTYYADSVKGRFTISRDNAKNTVYLQMNSLKPEDTAVYYCAAAVYKRGGYDYWGQGTQVTVSS | high polyreactivity
QVQLVVSGGGLVQAGGSLRLSCAASGSFFPIYAMGWYRQAPGKERELVAAITSGGSTNYADSVKGRFTISRDNAKNTVYLQMNSLKPEDTAVYYCAAGGPDHADRYEYWGQGTQVTVSS | low polyreactivity
QVQLVVSGGGLVQAGGSLRLSCAASGSIFNVYAMGWYRPAPGKARELVAAITNGDSTNYADSVKGRFTISRDTAKNTVYLQMHSLKPEDTAVYYCNARAPSEYYGLEYDDWGQGTQGTVSS | low polyreactivity
QVQLVVSGGGLVQAGGSLRLSCAASGSIFRYYAMGWFRQAPGQERELVASITRGGTSTYYADSVKGRFTISRDNAKNTVYLQMNSLKPDDTAVYYCAAKGYLSRYDNWGLGTQVTVSS | high polyreactivity
QVQLVVSGGGLVQAGGSLRLSCAASGSIFVSNAMGWYRQAPGKEREFVAAITGSGGSTYYADSVKGRFPISRDNAKNTVYLQMNSLKPEDTAVYYCNAGLIHFYAGNYDLYDYWGQGTQVTVSS | low polyreactivity
QVQLVVSGGGLVQAGGSLRLSCAASGSILDSNAMGWYRQAPGKERELVAAITSGGSTYYADSVKGRFTISRDNAKNTVYLQMNSLKPEDTAVYYCNANGVQYFLYGYWGQGTQVTVSS | low polyreactivity
QVQLVVSGGGLVQAGGSLRLSCAASGYTFDDYAMAWYRQAPGKERELVAAISRGGSTYYADSVKGRFTISRDNAKNTVYLQMNSLIPEDTSVYYCAAVYRVRKITNDYWGQGTQVTVSS | high polyreactivity
QVQLVVSGGGLVQAGGSLRLSCSASGYTFWRYAMGWYRQAPGKERELVAAISQSGGRTYYADSVKGRYTISRDNAKNTVYLQMNSLKPEDTAVYFCATSYSQGDDYWGQGTQVTVSS | high polyreactivity
QVQLVVSGGGLVQEGGSLRLSCAASGGLFSLYAMGWYRQAPGKEREFVSAISFSGASTYYADSVKGRFTISRDNAKNTVSLQKNSLKPEDTSVYYCAAYWDAVGRRYTRLYYWGQGTQVTVSS | low polyreactivity
QVQLVVSGGGLVQPGGSLRLSCAATGSTLNSYVMGWYRQAPGKERELVATIRSGSSTNYADSVKGRFTISRDNAKNTVYLLMNSLKPEDTAVYYFAADAYSLCYDSWGQGTLVTVSS | low polyreactivity
QVQLVVSGGRLVQGAGSHRLSSAASGSIFPKYAMGWYRQAPGKERDLVATISYRGGRTYYADSVKGRFTISRDNAKNTVNLQMNCLKPEDTAVYYCNAHSQAKLDYWGQGSQVTVSS | low polyreactivity
QVQLVYSGGGLVQAGGSLRLSCAASGSIFFVYAMGWYRQAPGKERELDAAITSGGSTKDADSVKGRFTISRDNAKNTVYLQMNSLKPEDTAVYYCAKDYKCIATEGAFDYWGQGTQVTVSS | low polyreactivity

Sequence | polyreactivity (PSR sort gate)
QVQMQEIGGGLVQASGSLRLSCAASGNIFPDYFMGWYRLAPGKEREFVANITGGSTTNYADSVKGRFTISRDNAKNTVYLQINSLKPEDTAVYYCAVNFGTEQHAYWGQGTQVTVSS | high polyreactivity
QVQMQESGGGLVQAGGSLRLICAASGTISVHASMGWYRQAPGKERELVAGITDGANTYYADSVKGRFTISRDNSKNTVYLQMNSLKPEDTAVYYCAAYYGTEVHFTYWGQGTQVTVSS | low polyreactivity
QVQPQESGGGLVQAGGSLRLSCAASGTIFAFQTMGWYRQAPGKERELVASITYGSSTNYADSVKGRFTISRDNAKNTVYLQMNSLKPEDTAVYYCAVPQAQYYYDYWGQGTQVTVSS | high polyreactivity
QVQPQESGGGQVQAGSCLRLSCTASGYIFLYAYMGRYRQAPGKEREFVATITDGTSTYYADSVKGRFTISRNNAKNIVYLQMNSLKPEDTAVYYCAADAGGGYPGDEDWGQGTQVTVSS | low polyreactivity
QVQPVESGGGLDQAGGSLRLSCAASGRILWSYAMGWYRQAPGKERELVAAIRTSGGSTYYADSVKGRFTISRDNAKNTVYLQMNSLKPEDTAVYYCAADRTLFSTVDYWGQGTQVTVSS | low polyreactivity
QVQPVESGGGLVQAGGSLRLSCAASGIIFPYYAMGWYRQEPGKERELVAAISTGGSTYYADSVKGRFTISRDNAKNTVYLQMNSLKPEDTAVYCCAAATSYGKSEYDYWGQGTQVTVSS | high polyreactivity
QVQQQESGGGLVQAGGSLRLSCAASGTIFQLTVMGRYRQAPGKERQLVASIDYGGNTNYADSVKGRFTISRDNAKNTVYLQMNSLKPEDTAVYYCAASSDSWTTHPYWGQGTQVTVSS | low polyreactivity
QVQQQESGGGLVQAGGSLRQSYAASGYIFPSLAMGWYRQAPGKEREFVAAIGRGSTNNYADSVKGRFTISRDNAKNTAYQQMNSLKPEDTAVYYSAAAASPLTRHLYWGQGTQVNVSS | low polyreactivity
QVQQVESGGGLVQAGGSLRLSCADSGRTFTLYAMGWYRQAPGKERELVAAITWRGGRTYYADSVKGRFTISRDNAKNTVYFQMNSLKPEVTEVYYCAARKYSPQLDRYGYWGQGTQVTVSS | high polyreactivity
QVQQVESGGGLVQAGGSLRLSSAASGITFRYYAMGWYRQAPGKERELVAAISSTGGSSYYADSVKGRFTISRDNAKNTVYLQMNSLKPEDTAVYYCNTQYNSQYDYWGQGTQVTVSS | high polyreactivity
QVQQVESGGGLVQAGGSLRLSWAASGRIFVINGMGWYRQAPGKERELVAGISSGGTTYADSVKGRFTISRDNAKNTVYLQMNSLKPEDTEVYYCAARGRYQPQFDYWGQGTQVTVSS | high polyreactivity
QVQREESGGGLFQAGGTLRLSCAASGFTFVWYAMGWNRQATGKERELVAAITRSGGSTYYADSVKGRFTISRDNAKNTVYLQMNSLKPEDTAVYYCNVSYGTFPGRALFANNFYYWGQGTQVTVSS | low polyreactivity
QVQREESGGGLVQAGGSLRLSCAASGRTFRYYAMGWSRQAPGKERELVAAITSGGGTNYADSVKGRFTISRDNAKNTVYLQMNSLKPEDTAVYYCAADHVYYDYDYWGQGTQVNVSS | low polyreactivity
QVQRVASGGGLVQAGGSLRLSWAASGSIVVRYTMGWYRQAPGKERELVAGISSRGGSTYYADSVKGRFTISRDNAKNTVSLQLNSLTPEDTAVYYCAKERSYSRSGGTYYYWGQRTQVTVSS | high polyreactivity
QVQRVDSGGGLVQAGGSLRVSCAASGFIFVANAMGGDREAPGKERELVADINRGSTYYADSVKGRFTISRDNAKNTVYLQMNSLKPEDTAVYYCAARHWRRSGIYYYWGQGTQVTVSS | high polyreactivity
QVQRVESAGGLVQAGGSLRLSCAASGFILDNYAMGWYRQAPGKERELVAAISGSGGSTYYADSVKGRFTISRDNAKNTVYLQMNSLKPEDTAVYYCNRDRLLRQYDYWGQGTQVTVSS | high polyreactivity
QVQRVESAGGLVQAGGSLRLSSAASGFTFRRYAMGWYRQARGKERELVARITWSGTSTDYADSEKGRFTISRDNAKNTVYLQMNSLKPEDTAVYYCAKAYTPWSGRYFAGVGYYYWGQGTQVTVSS | high polyreactivity
QVQRVESAGGLVQARGSLRLSCAASGRIFYYNAMGWYRQAPGKEREFVAAITSVGSTNYADSVKGLFTISRDNAKNTVYLQMNSLKPEDTAVYYCARASAWYVTLVGKYTKYDYWGQGTQVTVSS | low polyreactivity
QVQRVESGGCLVQAGGSLRLSCAASGYTFGSNAMGWYIQAPGKERELVAAITYGAGRTSYADSVKGRFTISRDNAKNTVYLQMNSLKPEDTAVYYCAAVWGYVIWVDSAVYREYDYWGQGTQVTVSS | high polyreactivity
QVQRVESGGGLVQAGCRLRLSCAASGTFFMGWYRQAPWKSRELVAGISISDGSTYYADSVKGRLTISRDNAKNTVYLQMKSLKPEDTAVYYFAAVFNPTTGFDYWGQGTQVTVSS | low polyreactivity
QVQRVESGGGLVQAGGILRLSCAASGSTFREYTMGWYRQAPGKEKELVAAITNSGGSTYYADSVKGRFTISRDNEKNTVYLQMNSLKPEDTAVYYCAADVGIVDYDYWGQGTQVTVSS | low polyreactivity
